For test [1], the target named is human endoglin (human) (UniProt P17813). The test can be described thus: cell-based or functional assay.
Test [2] shares this target. The test is described as follows: FACS on HUVEC, half-maximal fluorescence.
Test [3] has the same target. The test is described as follows: FACS, corrected fluorescence intensity grade, U937.
Test [4] shares this target. The test is described as follows: FACS, corrected fluorescence intensity grade, HUVEC.
Test [5] shares this target. The test is described as follows: indirect immunofluorescence FACS on HUVEC, 10 µg/ml.
Test [6] shares this target. The test is described as follows: FACS, corrected fluorescence intensity grade, ECV-304. (A flow cytometer gives signals particle by particle.)
Test [7] shares this target. The test is described as follows: FACS, corrected fluorescence intensity grade, A375M and T8.
Test [8] has the same target. The test is described as follows: FACS, corrected fluorescence intensity grade, HT-1080 and SAOS-2.
For test [9] the target is unchanged. The test can be described thus: FACS, corrected fluorescence intensity grade, MDA-MB-231 and SKBR3.
For test [10] the target is unchanged. The test can be described thus: FACS, corrected fluorescence intensity grade, L-endoglin transfectant.
For test [11] the target is unchanged. The test can be described thus: competition FACS on HUVEC; unlabelled TEC-4 against biotinylated TEC-11 (competitor), ratio 1:1.
Test [12] shares this target. The test is described as follows: competition FACS on HUVEC; unlabelled TEC-4 against biotinylated TEC-11 (competitor), ratio 1:100.
Test [13] has the same target. The test can be described thus: FACS, 20 µg/ml TEC-11, sorted Endoglin^hi fraction of postconfluent HUVEC; SD in parentheses.
Test [14] shares this target. The test can be described thus: FACS, 20 µg/ml TEC-11, sorted Endoglin^lo fraction of postconfluent HUVEC; SD in parentheses.
Test [15] shares this target. The test is described as follows: competition FACS on HUVEC; unlabelled TEC-11 against biotinylated TEC-4 (competitor), ratio 1:1.

By EC50 is commonly meant the midpoint of the concentration-response curve. As for “TEC-4 (tumor endothelial cell antibody 4)”, in the test with human endoglin (human) [1], the complement-mediated lysis of HUVEC (guinea pig complement, trypan blue) amounted to 48%. The substance also yielded an EC50 in the test with human endoglin (human) [2] of 4 µg/mL. In addition, the corrected fluorescence intensity (CFI) with human endoglin (human) [3] was 5 to 25 cfi; in the test with human endoglin (human) [4], above 100 cfi; in the test with human endoglin (human) [6] it was 25 to 50 cfi; with human endoglin (human) [7], 5 to 25 cfi; with human endoglin (human) [8], 5 to 25 cfi; with human endoglin (human) [9], 5 to 25 cfi. Besides, the corrected fluorescence intensity (CFI) in the test with human endoglin (human) [10] lay in the range of 50 to 100 cfi. Also, the specific mean fluorescence intensity (MFI) with human endoglin (human) [5] was determined as 200. Besides, the percent blocking of biotinylated TEC-11 was 1% with human endoglin (human) [11] and 20% in the test with human endoglin (human) [12].
With “TEC-11 (tumor endothelial cell antibody 11)”, the complement fixation relative to TEC-4 in the test with human endoglin (human) [1] stood at 100 fold. Also, the complement-mediated lysis of HUVEC (guinea pig complement, trypan blue) with human endoglin (human) [1] was above 50%. This substance also registered an EC50 with human endoglin (human) [2] of 0.4 µg/mL. The corrected fluorescence intensity (CFI) with human endoglin (human) [3] was 5 to 25 cfi; in the test with human endoglin (human) [4], above 100 cfi; with human endoglin (human) [6], 25 to 50 cfi; in the test with human endoglin (human) [7], 5 to 25 cfi; in the test with human endoglin (human) [8], 5 to 25 cfi; with human endoglin (human) [9] it was 5 to 25 cfi. Moreover, the corrected fluorescence intensity (CFI) in the test with human endoglin (human) [10] lay within 50 to 100 cfi. The same substance registered a specific mean fluorescence intensity (MFI) in the test with human endoglin (human) [5] of 200. In addition, the MFI in the test with human endoglin (human) [13] is 270; with human endoglin (human) [14] it was 61.6. Besides, the percent blocking of biotinylated TEC-4 in the test with human endoglin (human) [15] was found to be 51%.

The values are drawn from US6451312.
